In this data set the target is interferon-gamma (IFNγ) (human, UniProt P01579 24-161). The data set is described as follows: SPR; method inferred; no citation given with the value; SPR (BIAcore T200, biotinylated aptamer on SA chip), 1x PBS (1 mM KH2PO4, 3 mM Na2HPO4) with 205 mM NaCl final, 0.05% NP-40, pH 7.4, 25 °C; IFNγ 1.25-50 nM. The note with it: protein: recombinant; chain copies: 2.

This note sets out measurements from paper PMC4686876, “Architecture of high-affinity unnatural-base DNA aptamers toward pharmaceutical applications”.

interferon-gamma (IFNγ), sequence (P01579 24-161): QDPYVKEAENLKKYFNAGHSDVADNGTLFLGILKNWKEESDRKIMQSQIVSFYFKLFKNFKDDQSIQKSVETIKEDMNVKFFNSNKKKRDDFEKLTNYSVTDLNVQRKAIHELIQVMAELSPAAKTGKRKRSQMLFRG

Regarding TCCACTCGGGTCATTTAATAATGTAGGTATGGGCTAGGCAGCTAGTGGA (structured_DNA) [aptamer 49A], the Kd stood at 7.2 nM.
